Results reported in patent US20260167731A1 (DOMAIN THERAPEUTICS, published 2026).
Where a chain is given by its changes, count along the chain named. Values joined by “and” are separate entries in the source; they are usually repeats but may differ in a detail not shown here. Equal entries are not always repeated.

B1: anti-CCR8 mAb 2-9 (antibody, V domains shown)
VH: QVQLQQPGSELVRPGASVKLSCKASGYTFTSYWMHWVKQRPGQGLEWIGNIWPGSASTNYDEKFKNKATLTVDTSSSTAYMQLSSLTSEDSAVYYCIRGGKGAMDYWSQGTSVTVSS
VL: DVVMTQIPLSLPVSLGDQASISCRSSQSLENSYGNTYLNWYLQKPGQSPQLLIYRVSNRFSGVLDRFSGSGSGTDFTLKISRVEAEDLGVYFCLQVTHVPPTFGAGTKLELK
B2: anti-CCR8 mAb 2-6 (antibody, V domains shown)
VH: QVQLKESGPGLVAPSQSLSITCTVSGLSMNDYVVTWIRQPPGKGLEWLGVIWGGGNTYYNSDLKSRLSITKDNSKSQVFFKMSSLQTDDTAVYYCARRHRDYALDYWGQGISVTVSS
VL: ENVLTQSPAIMSASPGEKVTMTCRASSSVSSSYLHWYQQKSGASPKLWIYSTSNLASGVPARFSGSGSGTSYSLTISSVEAEDAATYYCQQYSGYPYTFGGGTKLEIK
B3: anti-CCR8 mAb 2-5 (antibody, V domains shown)
VH: EVQLQQSGPELVKPGASVKISCKTSGYTFTEYTIHWVKQSHGKSLEWVGGINPDNGNTRYDQKFKGKATLTIDKSSSTAYMELRSLTSEDSAVYYCARVARSSGSGPYAMDYWGQGTSVTVSS
VL: DVVMTQTPLSLPVSLGDQASISCRCTQSLLHTNGDTYLHWYLQKPGQSPKLLIYKVSNRFSGVPDRFSGSGSGTDFTLKISRVEAEDLGVYFCSQSTHVPYTFGGGTKLEIK
B4: anti-CCR8 mAb 2-8 (antibody, V domains shown)
VH: QVQLKESGPGLVAPSQSLSITCTVSGFSLTDYGVSWIRQPPGKGPEWLGVIWGGGNTYYNSVLKSRLSISNDNSKSQVFLRMNSLQTADTAIYYCARPRRDYYALDYWGQGTSVTVAS
VL: B3 VL with C25S, T26S, L30V, H31Y, D35N, Y37F, Y101P
B5: anti-CCR8 mAb 2-3 (antibody, V domains shown)
VH: EVQLQQSGPELLKPGTSVKISCTTSGYTFSDYTLHWVKQSHGKSLEWIGGITPKNGDTRYDPRFKDKATLTIDKSSSAAYMELRSLTSEDSAVYYCARVARFYGVSPYAMDYWGQGASVTVSS
VL: B3 VL with T32S, K79E, S81T, S96T
B6: anti-CCR8 mAb 2-7 (antibody, V domains shown)
VH: QVQLKESGPGLVAPSQSLSITCTVSGFSLTDYRVSWIRQPPGKGLEWLGVIWGGRSTYYNSALKSRLSISKDNSKSQVFLKMNSLQTDDTAMYYCAKQGDGYYALDYWGQGTSVTVSS
VL: B3 VL with C25S, T26S, L30V, T32S, N33Y, D35N, S68H, Y101P

What follows are binders tested against T1, human CCR8 (human, UniProt P51685 1-355) (assay: flow cytometry, hCCR8 transfected CHOK1 cells).
T1 construct: also called hCCR8; hCCR8_P51685
Method: The same staining protocol was applied on human CCR8 transfected CHO cell line versus wild type CHO cell line, cutaneous T cell lymphoma HUT78 cell line and human activated T cell model.
Briefly, 1·10⁵ cells per well in a 96 well plate were incubated with a dilution of unconjugated anti-CCR8 mAb at 10 μg/mL then diluted at 1/3.33, 4 dilution points (during 30 min at 4° C.). In human activated T cells model, prior to mAb incubation, cells were first incubated with 200 nM of hCCL1 (R&D Systems, Minneapolis, MN, USA) or buffer PBS (Invitrogen by Thermofisher Scientific, Illkirch-Graffenstaden, France) supplemented by 2% Fetal Bovine Serum (Invitrogen by Thermofisher Scientific, Illkirch-Graffenstaden, France) and 2 mM EDTA (Invitrogen by Thermofisher Scientific, Illkirch-Graffenstaden, France) during 1 hour at 4° C. To determine EC50 value, 8 concentrations of anti-CCR8 mAb were tested. Unbound antibodies were washed away with PBS (Invitrogen by Thermofisher Scientific, Illkirch-Graffenstaden, France) supplemented by 2% Fetal Bovine Serum (Invitrogen by Thermofisher Scientific, Illkirch-Graffenstaden, France) and 2 mM EDTA (Invitrogen by Thermofisher Scientific, Illkirch-Graffenstaden, France). Subsequently, cells are centrifuged (5 min at 400 g) and bound antibody is detected with F(ab′)₂-Goat anti-Mouse IgG (H+L) Cross-Adsorbed Secondary Antibody, Alexa Fluor 488 (dilution 1/500) (Invitrogen by Thermofisher Scientific, Illkirch-Graffenstaden, France) or with F(ab′)₂-Goat anti-Human IgG Fc Secondary Antibody, PE (Invitrogen by Thermofisher Scientific, Illkirch-Graffenstaden, France) (dilution 1/1000) at 4° C. for 30 min. Detection reagent is washed away and cells are centrifuged (5 min at 400 g) and resuspended in 30 μL PBS. Bound detection antibody is quantified on a MacsQuant16 (Miltenyi, Gladbach, Germany) (B1 or B2 channel, 5000 events per acquisition). During the experiment, the respective isotype mAb controls (mouse IgG1, mouse IgG2a, mouse IgG2b, mouse IgG3 or human IgG1) (Biolegend, Amsterdam, The Netherlands) are included to exclude any unspecific binding events.
With B1 the “% positive cells” value was 81.6% and the “MFI fold change to isotype ctrl” value was 9.92 fold. In the case of B2, the “% positive cells” value is reported as 69.9% and the “MFI fold change to isotype ctrl” value is reported as 5.81 fold. In the case of B3, the “% positive cells” value is reported as 73.7% and the “MFI fold change to isotype ctrl” value is reported as 10.3 fold. In the case of B4, the “% positive cells” value is reported as 78.9% and the “MFI fold change to isotype ctrl” value is reported as 6.36 fold. In the case of B5, the “% positive cells” value is reported as 81.1% and the “MFI fold change to isotype ctrl” value is reported as 10.7 fold. B6 was tested, and the “% positive cells” value was 57.7% and the “MFI fold change to isotype ctrl” value was 3.84 fold.

The binders below were run against T1, human CCR8 (assay: cell-based or functional assay).
With B1 the “hCCL1 (100 nM) residual response in %, Protocol #2, mAb 0.08 µg/mL (0.53 nM)” value was 99%, the “hCCL1 (100 nM) residual response in %, Protocol #2, mAb 0.4 µg/mL (2.67 nM)” value was 83% and the “hCCL1 (100 nM) residual response in %, Protocol #2, mAb 10 µg/mL (66.7 nM)” value was 56%. The “hCCL1 (100 nM) residual response in %, Protocol #3, mAb 0.05 µg/mL (0.33 nM)” value was 116%, the “hCCL1 (100 nM) residual response in %, Protocol #3, mAb 0.5 µg/mL (3.33 nM)” value was 90% and the “hCCL1 (100 nM) residual response in %, Protocol #3, mAb 5 µg/mL (33.3 nM)” value was 45%. B5 was tested, and the “hCCL1 (100 nM) residual response in %, Protocol #2, mAb 0.08 µg/mL (0.53 nM)” value was 79%, the “hCCL1 (100 nM) residual response in %, Protocol #2, mAb 0.4 µg/mL (2.67 nM)” value was 38% and the “hCCL1 (100 nM) residual response in %, Protocol #2, mAb 10 µg/mL (66.7 nM)” value was 17%. For the same binder, the “hCCL1 (100 nM) residual response in %, Protocol #3, mAb 0.05 µg/mL (0.33 nM)” value was 102%, the “hCCL1 (100 nM) residual response in %, Protocol #3, mAb 0.5 µg/mL (3.33 nM)” value was 64% and the “hCCL1 (100 nM) residual response in %, Protocol #3, mAb 5 µg/mL (33.3 nM)” value was 47%.

Biological target: T1, human CCR8
Assay: cell-based or functional assay
Remark: another data set of the same source
In the case of B4, the “IC50, CCL1 induced hCCR8 Gi2 signaling (BRET) at pH 6.5” value (“IC50 … at pH 6.5” below) is reported as 0.578 µg/ml and 3.85 nM and the “IC50, CCL1 induced hCCR8 Gi2 signaling (BRET) at pH 7.4” value (from here on “IC50 … at pH 7.4”) is reported as 0.812 µg/ml and 5.41 nM. For B5, the “IC50 … at pH 6.5” value was 0.044 µg/ml and 0.292 nM and the “IC50 … at pH 7.4” value was 0.061 µg/ml and 0.405 nM. With B6 the “IC50 … at pH 6.5” value was 0.516 µg/ml and 3.44 nM and the “IC50 … at pH 7.4” value was 0.82 µg/ml and 5.47 nM.

The binders below were run against T1, human CCR8 (assay: flow cytometry, inhibition of hCCL1-AF647 binding to hCCR8 CHO cells).
Method: The hCCR8 transfected CHO cell line was dispatched at a density of 1·10⁵ per well in a 96-well plate. Cells were incubated for 30 min at 4° C. with or without anti-CCR8 mAb tested at 10 μg/mL then diluted at 1/3. Unbound antibodies were washed away with PBS (Gibco, Villebon-sur-Yvette, France) supplemented by 2% Fetal Bovine Serum (Invitrogen by Thermofisher Scientific, Illkirch-Graffenstaden, France) and 2 mM EDTA. […] After washing unbound ligands, CCL1 bound detection is quantified on a MacsQuant16 (Miltenyi, Gladbach, Germany) (R1 channel, 5 000 events per acquisition).
For IC₅₀ determination, a concentration response curve is performed using 8 concentrations of mAb. Curves are fitted and IC₅₀ of CCL1 binding blocking activity is calculated using the sigmoidal dose-response (variable slope) model on GraphPad Prism 9 (GraphPad Software, San Diego, CA, USA).
In the case of B1, the IC50 is reported as 1.18 µg/mL and 7.92 nM. With B2 the IC50 was 1.25 µg/mL and 8.34 nM. B3 was tested, and the IC50 was 1.15 µg/mL and 7.73 nM. For B4, the IC50 was 2.22 µg/mL and 14.8 nM. In the case of B5, the IC50 is reported as 1.3 µg/mL and 8.71 nM. In the case of B6, the IC50 is reported as 2.73 µg/mL and 18.3 nM.

Biological target: T1, human CCR8
Assay: cell-based or functional assay
Remark: another data set of the same source
With B1 the “IC50, CCL1 induced hCCR8 Gi2 signaling (BRET, HEK-293)” value (shortened to “IC50 … (BRET, HEK-293)”) was 0.026 µg/mL and 0.172 nM. In the case of B2, the “IC50 … (BRET, HEK-293)” value is reported as 0.106 µg/mL and 0.706 nM. In the case of B3, the “IC50 … (BRET, HEK-293)” value is reported as 0.044 µg/mL and 0.291 nM. With B4 the “IC50 … (BRET, HEK-293)” value was 0.712 µg/mL and 4.75 nM. In the case of B5, the “IC50 … (BRET, HEK-293)” value is reported as 0.049 µg/mL and 0.328 nM. For B6, the “IC50 … (BRET, HEK-293)” value was 0.552 µg/mL and 3.68 nM.

The binders below were run against pm6, modified CCR8 related peptide (human, sulfated tyrosines at Y16 and Y17) (assay: ELISA on coated CCR8 peptide (500 ng/mL), OD [cont.]).
Sequence of pm6, modified CCR8 related peptide (human, sulfated tyrosines at Y16 and Y17) (peptide, as listed by the source): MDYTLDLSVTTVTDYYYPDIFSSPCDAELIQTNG
Method: (§1) The specific binding properties of antibodies were evaluated by ELISA with coated CCR8 related peptides (500 ng/mL) in carbonate/bicarbonate buffer. Different peptides were used as described in Table 1 (see Example 1). Each anti-CCR8 mAb was tested at 1 μg/mL then diluted at 1/10. After an incubation at room temperature during 90 min, unbound mAbs were removed by washings. […] After washings, 3,3′,5,5′-tetramethylbenzidine (TMB) (Interchim, Montlugon, France) was added for 15 min. Then the optical density (OD) was determined by using a multiplate reader (Tecan, Lyon, France) and correlated with mAb reactivity on the panel of coated peptides.
B2: binds. B3: binds. B4: binds. B5: binds. B6: binds.

The binders below were run against pm3, modified CCR8 related peptide (human, sulfated tyrosine at Y17) in the same assay as above.
Sequence of pm3, modified CCR8 related peptide (human, sulfated tyrosine at Y17) (peptide, as listed by the source): as above
Method: as §1
B2: binds. B3: binds. B4: binds. B5: binds. B6: binds.

The binders below were run against pm1, modified CCR8 related peptide (human, sulfated tyrosine at Y15) in the same assay as above.
Sequence of pm1, modified CCR8 related peptide (human, sulfated tyrosine at Y15) (peptide, as listed by the source): as above
Method: as §1
B2: binds. B3: binds. B4: binds. B5: binds. B6: binds.

The binders below were run against pm8, modified CCR8 related peptide (human, sulfated tyrosines at Y15, Y16 and Y17) in the same assay as above.
Sequence of pm8, modified CCR8 related peptide (human, sulfated tyrosines at Y15, Y16 and Y17) (peptide, as listed by the source): as above
Method: as §1
B2: binds. B3: binds. B4: binds. B5: binds. B6: binds.

The binders below were run against pm4, modified CCR8 related peptide (human, sulfated tyrosines at Y15 and Y16) in the same assay as above.
Sequence of pm4, modified CCR8 related peptide (human, sulfated tyrosines at Y15 and Y16) (peptide, as listed by the source): as above
Method: as §1
B2: binds. B3: binds. B4: binds. B5: binds. B6: binds.

The binders below were run against T2, pwt1, unmodified CCR8 related peptide (human, none (non-sulfated Y15, Y16, Y17)) in the same assay as above.
T2 construct: First 34 amino acids of human CCR8, synthetic; also called unmodified peptide
T2 sequence (peptide, as listed by the source): as above
Method: as §1
B2: binds. B3: binds. B4: binds. B5: binds. B6: binds.

The binders below were run against pm5, modified CCR8 related peptide (human, sulfated tyrosines at Y15 and Y17) in the same assay as above.
Sequence of pm5, modified CCR8 related peptide (human, sulfated tyrosines at Y15 and Y17) (peptide, as listed by the source): as above
Method: as §1
B2: binds. B3: binds. B4: binds. B5: binds. B6: binds.

The binders below were run against pm2, modified CCR8 related peptide (human, sulfated tyrosine at Y16) in the same assay as above.
Sequence of pm2, modified CCR8 related peptide (human, sulfated tyrosine at Y16) (peptide, as listed by the source): as above
Method: as §1
B2: binds. B3: binds. B4: binds. B5: binds. B6: binds.
